Measured values as given in patent publication US20070254831A1 (published 2007).
Like-named read-outs stand apart in the source and are kept apart here. Each block holds one binder with its values, some of them ahead of it. Bridge positions count the residues as written; N and C are the ends. Square brackets hold non-standard residues; d marks the D form. Ends that are not written are not given here. NMeL = CN[C@@H](CC(C)C)C(=O)O; Pen = CC(C)(S)[C@H](N)C(=O)O; Sar = CNCC(=O)O

What was measured:
soluble human FcRn [1] = target: T1, soluble human FcRn (human, UniProt P55899 24-297; P61769 21-119, biotinylated (Sulfo-NHS-LC-Biotin) in the ELISA; amine-coupled to CM5 chip in SPR); assay: SPR, pH 7.4
T1 construct: also called shFcRn; biotinylated shFcRn
Experimental: (§1) The following steps were performed to cross-link soluble human or cynomolgus FcRn to the dextran surface of a CM5 sensor chip (Biacore AB, Uppsala, Sweden) by an amine coupling reaction involving 1-ethyl-(3-dimethylaminopropyl)-carbodiimide hydrochloride (EDC) (Biacore AB, Uppsala, Sweden) and N-hydroxysuccinimide (NHS) (Biacore AB, Uppsala, Sweden) as recommended by Biacore (BIAapplications Handbook, version AB, section 4.2, Biacore AB, Uppsala, Sweden). […] Residual sites on the FcRn flow cell were blocked with 1 M ethanolamine hydrochloride pH 8.5 (Biacore AB, Uppsala, Sweden). A control flow cell was blocked with ethanolamine for reference subtraction. For analysis of the monomeric peptides, FcRn was coated to a final density of 4000-5000 response units (RU). For analysis of the peptide dimers, FcRn was coated to a density of 2000-2500 RU. All SPR measurements were performed using a BIACORE 3000 Instrument (Biacore AB Uppsala, Sweden). For measurements done at either pH 6 or pH 7.4, experiments were performed in 50 mM phosphate, 100 mM sodium chloride, 0.01% surfactant P20 (Biacore AB, Uppsala, Sweden).
(§2) Ten, 2-fold dilutions of the peptide were injected over the FcRn-CM5 chip at a rate of 20 μl/min for 2 min. The peptide was dissociated from the chip for 2.5 minutes with buffer. […] Sensorgrams were generated and analyzed using BiaEval software version 3.1 (Biacore AB, Uppsala, Sweden). […]

soluble human FcRn [2] = target: T1, soluble human FcRn; assay: ELISA, competitor human IgG
Experimental: (§3) The wells were coated with 100 μl/well of 1 μg/ml biotinylated-shFcRn in Buffer A. The plate was sealed and incubated at 37° C. for 2 hours. Afterwards, the plate washed with 200 μl/well of Buffer B (Buffer B: 100 mM MES pH 6, 150 mM NaCl, 0.5% BSA IgG-free (Jackson ImmunoResearch, West Grove, Pa.), 0.05% Tween-20). […] To allow for mixing, the plate was rocked for 2 minutes, sealed and incubated at 37° C. for 2 hours. […] The plate was covered, incubated for 30 minutes at room temperature and washed 4 times with 200 μl/well of ice-cold buffer B. SureBlue TMB substrate solution (100 μl/well, KPL, Gaithersburg, Md.) was added and the plate was allowed to incubate at room temperature until color developed, which took 5 to 10 minutes. Once color developed, 100 μl/well of TMB stop solution (KPL, Gaithersburg, Md.) was added and the absorbance was measured at 450 nm. The data was plotted as absorbance vs. peptide concentration to derive the inhibitory concentration 50% (IC₅₀) values.

soluble human FcRn [3] = target: T1, soluble human FcRn; assay: SPR, pH 6
Experimental: as §1, §2

soluble human FcRn [4] = target: T1, soluble human FcRn; assay: SPR, pH 7.4; remark: listed apart in the source
Experimental: as §1, §2

soluble human FcRn [5] = target: T1, soluble human FcRn; assay: ELISA, competitor human IgG; remark: listed apart in the source
Experimental: as §3

soluble human FcRn [6] = target: T1, soluble human FcRn; assay: SPR, pH 6; remark: listed apart in the source
Experimental: as §1
(§4) Ten, 2-fold dilutions of the peptide were injected over the FcRn-CM5 chip at a rate of 20 μl/min for 2 min. The peptide was dissociated from the chip for 2.5 minutes with buffer. Any remaining peptide was removed from the chip with a 30 second injection of HBS-P buffer (Biacore AB, Uppsala, Sweden) at a rate of 30 μl/min. Sensorgrams were generated and analyzed using BiaEval software version 3.1 (Biacore AB, Uppsala, Sweden). The equilibrium RU observed for each injection was plotted against concentration. The equilibrium KD values were derived by analysis of the plots using the steady state affinity model included in the BiaEval software.

soluble human FcRn [7] = target: T1, soluble human FcRn; assay: SPR, pH 7.4; remark: listed apart in the source
Experimental: as §1, §4

soluble human FcRn [8] = target: T1, soluble human FcRn; assay: ELISA, competitor human IgG; remark: listed apart in the source
Experimental: as §3

soluble human FcRn [9] = target: T1, soluble human FcRn; assay: SPR, pH 6; remark: listed apart in the source
Experimental: as §1, §4

soluble human FcRn [10] = target: T1, soluble human FcRn; assay: SPR, pH 6; remark: listed apart in the source
Experimental: as §1, §4

soluble human FcRn [11] = target: T1, soluble human FcRn; assay: SPR, pH 7.4; remark: listed apart in the source
Experimental: as §1, §2

soluble human FcRn [12] = target: T1, soluble human FcRn; assay: SPR, pH 6; remark: listed apart in the source
Experimental: as §1, §4

soluble human FcRn [13] = target: T1, soluble human FcRn; assay: SPR, pH 7.4; remark: listed apart in the source
Experimental: as §1, §2

soluble human FcRn [14] = target: T1, soluble human FcRn; assay: ELISA, competitor human IgG; remark: listed apart in the source
Experimental: as §3

soluble human FcRn [15] = target: T1, soluble human FcRn; assay: SPR, pH 6; remark: listed apart in the source
Experimental: as §1, §2

soluble human FcRn [16] = target: T1, soluble human FcRn; assay: SPR, pH 7.4; remark: listed apart in the source
Experimental: as §1, §2

soluble human FcRn [17] = target: T1, soluble human FcRn; assay: ELISA, competitor human IgG; remark: listed apart in the source
Experimental: as §3

soluble human FcRn [18] = target: T1, soluble human FcRn; assay: SPR, pH 6; remark: listed apart in the source
Experimental: as §1, §2

soluble human FcRn [19] = target: T1, soluble human FcRn; assay: ELISA, competitor human IgG; remark: listed apart in the source
Experimental: as §3

soluble human FcRn [20] = target: T1, soluble human FcRn; assay: SPR, pH 7.4; remark: listed apart in the source
Experimental: as §1, §2

soluble human FcRn [21] = target: T1, soluble human FcRn; assay: ELISA, competitor human IgG; remark: listed apart in the source
Experimental: as §3

soluble human FcRn [22] = target: T1, soluble human FcRn; assay: ELISA, competitor human IgG; remark: listed apart in the source
Experimental: as §3

Binder: QRFCTGHFG[dA]LYPCNGP-NH2 (disulfide 4-14 (inferred)) [Peptide No. 23]
Kd (soluble human FcRn [1]): 184 µM
IC50 (soluble human FcRn [2]): 57 µM

Binder: QRFCTGHF[dA][dA]LYPCNGP-NH2 (disulfide 4-14 (inferred)) [Peptide No. 24]
Kd (soluble human FcRn [3]): 22 µM
IC50 (soluble human FcRn [2]): 69 µM

B1: Peptide No. 80 (peptide)
peptide: QRFKTGHFGGLYPDNGP-NH2
modifications: lactam 4-14; N-terminus assumed
SMILES: CC(C)C[C@@H]1NC(=O)CNC(=O)CNC(=O)[C@H](Cc2ccccc2)NC(=O)[C@H](Cc2c[nH]cn2)NC(=O)CNC(=O)[C@H]([C@@H](C)O)NC(=O)[C@@H](NC(=O)[C@H](Cc2ccccc2)NC(=O)[C@H](CCCNC(=N)N)NC(=O)[C@@H](N)CCC(N)=O)CCCCNC(=O)C[C@@H](C(=O)N[C@@H](CC(N)=O)C(=O)NCC(=O)N2CCC[C@H]2C(N)=O)NC(=O)[C@@H]2CCCN2C(=O)[C@H](Cc2ccc(O)cc2)NC1=O
Kd (soluble human FcRn [4]): 52 µM
IC50 (soluble human FcRn [5]): 60 µM

Binder: QRFXTGHFGGLYPENGP (Dab at 4; side-chain lactam bridge Dab 4-Glu 14; C-terminal amide) [Peptide No. 72]
Kd (soluble human FcRn [9]): 4.8 µM
IC50 (soluble human FcRn [5]): 81 µM

Binder: QRFXTGHFGGLYPDNGP (Dab at 4; side-chain lactam bridge Dab 4-Asp 14; C-terminal amide) [Peptide No. 81]
Kd (soluble human FcRn [9]): 8.4 µM
Kd (soluble human FcRn [4]): 45 µM

Binder: QRFXTGHFGGHYPCNGP (Pen at 4; disulfide; C-terminal amide) [Peptide No. 84]
Kd (soluble human FcRn [10]): 0.38 µM
Kd (soluble human FcRn [11]): 2.5 µM

B4: Peptide No. 100 (peptide)
peptide: QRFDTGHFGGLYPKNGP
modifications: also: N-termini joined through a bis-thiol linker (bromoacetylated peptide), bridge as drawn, places not given here
Kd (soluble human FcRn [15]): 0.006 µM
Kd (soluble human FcRn [16]): 0.13 µM
IC50 (soluble human FcRn [17]): 0.76 µM

B5: Peptide No. 105 (peptide)
peptide: QRFDTGHFG[dA]LYPKNGP-NH2
modifications: lactam 4-14; N-terminus assumed
SMILES: CC(C)C[C@@H]1NC(=O)[C@@H](C)NC(=O)CNC(=O)[C@H](Cc2ccccc2)NC(=O)[C@H](Cc2c[nH]cn2)NC(=O)CNC(=O)[C@H]([C@@H](C)O)NC(=O)[C@@H](NC(=O)[C@H](Cc2ccccc2)NC(=O)[C@H](CCCNC(=N)N)NC(=O)[C@@H](N)CCC(N)=O)CC(=O)NCCCC[C@@H](C(=O)N[C@@H](CC(N)=O)C(=O)NCC(=O)N2CCC[C@H]2C(N)=O)NC(=O)[C@@H]2CCCN2C(=O)[C@H](Cc2ccc(O)cc2)NC1=O
Kd (soluble human FcRn [9]): 2.1 µM

Now from value to binder:

Kd (soluble human FcRn [6]): 5.8 µM
Kd (soluble human FcRn [7]): 96 µM
IC50 (soluble human FcRn [8]): 52 µM
B2: Peptide No. 177 (peptide)
peptide: QRFVTGHFG[dP]WYPANGP-NH2
modifications: N-terminus assumed
SMILES: CC(C)[C@H](NC(=O)[C@H](Cc1ccccc1)NC(=O)[C@H](CCCNC(=N)N)NC(=O)[C@@H](N)CCC(N)=O)C(=O)N[C@H](C(=O)NCC(=O)N[C@@H](Cc1c[nH]cn1)C(=O)N[C@@H](Cc1ccccc1)C(=O)NCC(=O)N1CCC[C@@H]1C(=O)N[C@@H](Cc1c[nH]c2ccccc12)C(=O)N[C@@H](Cc1ccc(O)cc1)C(=O)N1CCC[C@H]1C(=O)N[C@@H](C)C(=O)N[C@@H](CC(N)=O)C(=O)NCC(=O)N1CCC[C@H]1C(N)=O)[C@@H](C)O

Kd (soluble human FcRn [12]): 0.15 µM
Kd (soluble human FcRn [13]): 0.96 µM
IC50 (soluble human FcRn [14]): 3 µM
B3: Peptide No. 296 (peptide)
peptide: QRF[Pen]HGHFGGLYPCNGP-NH2
modifications: disulfide 4-14; N-terminus assumed
SMILES: CC(C)C[C@@H]1NC(=O)CNC(=O)CNC(=O)[C@H](Cc2ccccc2)NC(=O)[C@H](Cc2c[nH]cn2)NC(=O)CNC(=O)[C@H](Cc2c[nH]cn2)NC(=O)[C@@H](NC(=O)[C@H](Cc2ccccc2)NC(=O)[C@H](CCCNC(=N)N)NC(=O)[C@@H](N)CCC(N)=O)C(C)(C)SSC[C@@H](C(=O)N[C@@H](CC(N)=O)C(=O)NCC(=O)N2CCC[C@H]2C(N)=O)NC(=O)[C@@H]2CCCN2C(=O)[C@H](Cc2ccc(O)cc2)NC1=O

Kd (soluble human FcRn [18]): 0.14 µM
IC50 (soluble human FcRn [19]): 1.5 µM
Binder: RFXTGHFGPLYPC (Pen at 3; D-Pro at 9; disulfide; C-terminal amide) [Peptide No. 142]

Kd (soluble human FcRn [20]): 24 µM
IC50 (soluble human FcRn [21]): 26 µM
Binder: QRFXTGHFGGLXPCNGP (Pen at 4; 4-fluoro-Phe at 12; disulfide; C-terminal amide) [Peptide No. 140]

Kd (soluble human FcRn [15]): 0.006 µM
Kd (soluble human FcRn [16]): 0.12 µM
IC50 (soluble human FcRn [17]): 0.97 µM
B6: Peptide No. 122 (peptide)
peptide: QRFDTGHFGGLYPKNGP
modifications: also: bromoacetylated peptide joined to a SATP-derivatized peptide (dimer), further groups not given here

Kd (soluble human FcRn [7]): 9 µM
IC50 (soluble human FcRn [8]): 37 µM
IC50 (soluble human FcRn [22]): 37 µM
B7: Peptide No. 236 (peptide)
peptide: RFVTGHFG[Sar][NMeL]YPA-NH2
modifications: N-terminus assumed
SMILES: CC(C)C[C@@H](C(=O)N[C@@H](Cc1ccc(O)cc1)C(=O)N1CCC[C@H]1C(=O)N[C@@H](C)C(N)=O)N(C)C(=O)CN(C)C(=O)CNC(=O)[C@H](Cc1ccccc1)NC(=O)[C@H](Cc1c[nH]cn1)NC(=O)CNC(=O)[C@@H](NC(=O)[C@@H](NC(=O)[C@H](Cc1ccccc1)NC(=O)[C@@H](N)CCCNC(=N)N)C(C)C)[C@@H](C)O
